We go through four molecules from patent publication US9670514B2, “Method for producing polysaccharide” (SANYO CHEMICAL INDUSTRIES, LTD., priority 2011, dated 2017).

Type in all cases: biochemical
Conditions in all cases: 30° C., pH 7.0

A short description of data set [1]: Specific activity of chondroitin synthase aqueous solution. The protocol: Reaction solution (11) was prepared by adding 10 μL of chondroitin synthase aqueous solution (B-2) obtained in Preparation 11 to 1 mL of aqueous solution T (50 mM phosphate buffer (pH of 7.0) containing 1 mM uridine diphosphate-glucuronic acid (^14C-labeled radioactive isotope-containing uridine diphosphate-glucuronic acid; radioactivity of 300 mCi/mmol), 1 mM uridine diphosphate-N-acetylgalactosamine, 100 mM sodium chloride, 10 mM magnesium chloride, 10 mM dodecylmaltoside, and 5 mM oleic acid). Three such reaction solutions (11) were prepared and allowed to react at 30° C. for 5 minutes, 10 minutes, and 15 minutes, respectively. Chondroitin was separated from the unreacted substrate by paper chromatography using filter paper. Subsequently, the origin was cut out and immersed in a liquid scintillation cocktail, and the radioactive isotope was then measured using a liquid scintillation counter. The yield of chondroitin was calculated from the amount of uptake of ^14C-labeled glucuronic acid. The results were 1.7 μg after 5 minutes, 3.1 μg after 10 minutes, and 4.4 μg after 15 minutes. The specific activity of chondroitin synthase aqueous solution (B-2) was calculated from the relationship between the yield of chondroitin and the reaction time. The result was 0.15 U/mL.

Data set [2] in a line: Activity of uridylyltransferase (G-1) to produce uridine diphosphate-N-acetylglucosamine. The protocol:
(§1) Reaction solution (10-1) was prepared by adding 10 μL of uridine triphosphate-monosaccharide-1-phosphate uridylyltransferase aqueous solution (G-1) obtained in Preparation 10 to 1 mL of aqueous solution (50 mM phosphate buffer (pH of 7.0) containing 100 mM sodium chloride, 10 mM magnesium chloride, 10 mM uridine triphosphate, and 10 mM N-acetylglucosamine-1-phosphate). Three such reaction solutions (10-1) were prepared and allowed to react at 30° C. for 5 minutes, 10 minutes, and 15 minutes, respectively. As for the quantity of the produced uridine diphosphate-N-acetylglucosamine, the product was detected with a UV light (260 nm) in HPLC. The activity of uridine triphosphate-monosaccharide-1-phosphate uridylyltransferase to produce uridine diphosphate-N-acetylglucosamine was determined from the amount of uridine diphosphate-N-acetylglucosamine production. The result was 0.1 U/mL.

Data set [3] can be described thus: Activity of uridylyltransferase (G-1) to produce uridine diphosphate-glucuronic acid. How it is done:
as §1
The activity of uridine triphosphate-monosaccharide-1-phosphate uridylyltransferase to produce uridine diphosphate-glucuronic acid was determined in a similar manner as described above, except that an aqueous solution containing “10 mM glucuronic acid 1-phosphate” was used in place of “10 mM N-acetylglucosamine-1-phosphate” and “uridine diphosphate-glucuronic acid” was quantitated in place of “uridine diphosphate-N-acetylglucosamine”. The result was 5 U/μL.

Data set [4] is described as follows: Specific activity of hyaluronan synthase aqueous solution (14C-glucuronic acid uptake). The protocol:
Reaction solution (1) was prepared by adding 10 μL of hyaluronan synthase aqueous solution (B-1) obtained in Preparation 1 to 1 mL of aqueous solution S (50 mM phosphate buffer (pH of 7.0) containing 1 mM uridine diphosphate-glucuronic acid (labeled radioactive radioactivity of 300 mCi/mmol), 1 mM uridine diphosphate-N-acetylglucosamine, 100 mM sodium chloride, 10 mM magnesium chloride, 10 mM dodecylmaltoside, and 5 mM oleic acid). Four such reaction solutions (1) were prepared and allowed to react at 30° C. for 5 minutes, 10 minutes, 15 minutes, and 20 minutes, respectively. Hyaluronan was separated from the unreacted substrate by paper chromatography (developing solvent containing 1 M ammonium acetate (pH of 5.5) and ethanol at a 7:13 ratio, hereinafter the same) using filter paper (Whatman No. 3 MM, hereinafter the same), and then the origin was cut out and immersed in a liquid scintillation cocktail. The radioactive isotope was then measured using a liquid scintillation counter. The amount of hyaluronan synthesis was calculated from the amount of uptake of ^14C-labeled glucuronic acid. The results were 1.6 mg after 5 minutes, 2.9 mg after 10 minutes, 4.2 mg after 15 minutes, and 5.5 mg after 20 minutes. The specific activity of hyaluronan synthase aqueous solution (B-1) was calculated from the relationship between the amount of hyaluronan synthesis and the reaction time. […]

The nature of data set [5]: Specific activity of starch synthase aqueous solution. The protocol:
Reaction solution (13) was prepared by adding 10 μL of starch synthase aqueous solution (B-4) obtained in Preparation 13 to 1 mL of aqueous solution V (50 mM phosphate buffer (pH of 7.0) containing 100 mM uridine diphosphate-α-glucose (^14C-labeled radioactive isotope-containing uridine diphosphate-α-glucose; radioactivity of 300 mCi/mmol), 100 mM sodium chloride, 10 mM magnesium chloride, and 5 mM oleic acid). Four such solutions (13) were prepared and allowed to react at 30° C. for 5 minutes, 10 minutes, 15 minutes, and 20 minutes, respectively. Starch was separated from the unreacted substrate by paper chromatography using filter paper, and then the origin was cut out and immersed in a liquid scintillation cocktail. The radioactive isotope was then measured using a liquid scintillation counter. The yield of starch was calculated from the amount of uptake of ^14C-labeled glucose. The results were 1.3 mg after 5 minutes, 2.5 mg after 10 minutes, 3.8 mg after 15 minutes, and 5.2 mg after 20 minutes. The specific activity of starch synthase aqueous solution (B-4) was calculated from the relationship between the yield of starch and the reaction time. The result was 0.15 U/μL.

B1: chondroitin synthase aqueous solution (B-2): chondroitin synthase, SEQ ID NO: 11, derived from Pasteurella multocida (protein, listed as Pasteurella multocida)
chain: MNTLSQAIKAYNSNDYELALKLFEKSAETYGRKIVEFQIIKCKEKLSTNSYVSEDKKNSVCDSSLDIATQLLLSNVKKLTLSESEKNSLKNKWKSITGKKSENAEIRKVELVPKDFPKDLVLAPLPDHVNDFTWYKNRKKSLGIKPVNKNIGLSIIIPTFNRSRILDITLACLVNQKTNYPFEVVVADDGSKENLLTIVQKYEQKLDIKYVRQKDYGYQLCAVRNLGLRTAKYDFVSILDCDMAPQQLWVHSYLTELLEDNDIVLIGPRKYVDTHNITAEQFLNDPYLIESLPETATNNNPSITSKGNISLDWRLEHFKKTDNLRLCDSPFRYFSCGNVAFSKEWLNKVGWFDEEFNHWGGEDVEFGYRLFAKGCFFRVIDGGMAYHQEPPGKENETDREAGKSITLKIVKEKVPYIYRKLLPIEDSHIHRIPLVSIYIPAYNCANYIQRCVDSALNQTVVDLEVCICNDGSTDNTLEVINKLYGNNPRVRIMSKPNGGIASASNAAVSFAKGYYIGQLDSDDYLEPDAVELCLKEFLKDKTLACVYTTNRNVNPDGSLIANGYNWPEFSREKLTTAMIAHHFRMFTIRAWHLTDGFNENIENAVDYDMFLKLSEVGKFKHLNKICYNRVLHGDNTSIKKLGIQKKNHFVVVNQSLNRQGINYYNYDKFDDLDESRKYIFNKTAEYQEEMDILKDLKLIQNKDAKIAVSIFYPNTLNGLVKKLNNIIEYNKNIFVIILHVDKNHLTPDIKKEILAFYHKHQVNILLNNDISYYTSNRLIKTEAHLSNINKLSQLNLNCEYIIFDNHDSLFVKNDSYAYMKKYDVGMNFSALTHDWIEKINAHPPFKKLIKTYFNDNDLRSMNVKGASQGMFMKYALPHELLTIIKEVITSCQSIDSVPEYNTEDIWFQFALLILEKKTGHVFNKTSTLTYMPWERKLQWTNEQIQSAKKGENIPVNKFIINSITL
modifications: aqueous solution
B1: the specific activity in data set [1] was determined as 0.15 U/mL.

B2: uridine triphosphate-monosaccharide-1-phosphate uridylyltransferase aqueous solution (G-1): uridylyltransferase, SEQ ID NO: 10, derived from Arabidopsis (protein)
chain: MASTVDSNFFSSVPALHSNLGLLSPDQIELAKILLENGQSHLFQQWPELGVDDKEKLAFFDQIARLNSSYPGGLAAYIKTAKELLADSKVGKNPYDGFSPSVPSGENLTFGTDNFIEMEKRGVVEARNAAFVLVAGGLGERLGYNGIKVALPRETTTGTCFLQHYIESILALQEASNKIDSDGSERDIPFIIMTSDDTHSRTLDLLELNSYFGMKPTQVHLLKQEKVACLDDNDARLALDPHNKYSIQTKPHGHGDVHSLLYSSGLLHKWLEAGLKWVLFFQDTNGLLFNAIPASLGVSATKQYHVNSLAVPRKAKEAIGGISKLTHVDGRSMVINVEYNQLDPLLRASGFPDGDVNCETGFSPFPGNINQLILELGPYKDELQKTGGAIKEFVNPKYKDSTKTAFKSSTRLECMMQDYPKTLPPTARVGFTVMDIWLAYAPVKNNPEDAAKVPKGNPYHSATSGEMAIYRANSLILQKAGVKVEEPVKQVLNGQEVEVWSRITWKPKWGMIFSDIKKKVSGNCEVSQRSTMAIKGRNVFIKDLSLDGALIVDSIDDAEVKLGGLINNGWTMESVDYKDTSVPEEIRIRGFRFNKVEQLEKKLTQPGKFSVED
modifications: aqueous solution; Arabidopsis
Consider B2, for which the “activity to produce uridine diphosphate-N-acetylglucosamine” value in data set [2] is on record as 0.1 U/mL. Besides, in data set [3], the “activity to produce uridine diphosphate-glucuronic acid” value was 5 U/μL.

B3: hyaluronan synthase aqueous solution (B-1): FLAG-tagged hyaluronan synthase, SEQ ID NO: 1, from Streptococcus equisimilis, expressed in E. coli (protein)
chain: MPIFKKTLIVLSFIFLISILIYLNMYLFGTSTVGIYGVILITYLVIKLGLSFLYEPFKGNPHDYKVAAVIPSYNEDAESLLETLKSVLAQTYPLSEIYIVDDGSSNTDAIQLIEEYVNREVDICRNVIVHRSLVNKGKRHAQAWAFERSDADVFLTVDSDTYIYPNALEELLKSFNDETVYAATGHLNARNRQTNLLTRLTDIRYDNAFGVERAAQSLTGNILVCSGPLSIYRREVIIPNLERYKNQTFLGLPVSIGDDRCLTNYAIDLGRTVYQSTARCDTDVPFQLKSYLKQQNRWNKSFFRESIISVKKILSNPIVALWTIFEVVMFMMLIVAIGNLLFNQAIQLDLIKLFAFLSIIFIVALCRNVHYMVKHPASFLLSPLYGILHLFVLQPLKLYSLCTIKNTEWGTRKKVTIFK
modifications: FLAG tag; aqueous solution; STREPTOCOCCUS
In the case of B3, the specific activity in data set [4] is 0.15 U/μL.

B4: starch synthase aqueous solution (B-4): starch synthase, SEQ ID NO: 13, derived from Saccharomyces cerevisiae (protein, listed as Saccharomyces cerevisiae)
chain: MSRDLQNHLLFETATEVANRVGGIYSVLKSKAPITVAQYKDHYHLIGPLNKATYQNEVDILDWKKPEAFSDEMRPVQHALQTMESRGVHFVYGRWLIEGAPKVILFDLDSVRGYSNEWKGDLWSLVGIPSPENDFETNDAILLGYTVAWFLGEVAHLDSQHAIVAHFHEWLAGVALPLCRKRRIDVVTIFTTHATLLGRYLCASGSFDFYNCLESVDVDHEAGRFGIYHRYCIERAAAHSADVFTTVSQITAFEAEHLLKRKPDGILPNGLNVIKFQAFHEFQNLHALKKEKINDFVRGHFHGCFDFDLDNTLYFFIAGRYEYKNKGADMFIEALARLNYRLKVSGSKKTVVAFIVMPAKNNSFTVEALKGQAEVRALENTVHEVTTSIGKRIFDHAIRYPHNGLTTELPTDLGELLKSSDKVMLKRRILALRRPEGQLPPIVTHNMVDDANDLILNKIRQVQLFNSPSDRVKMIFHPEFLNANNPILGLDYDEFVRGCHLGVFPSYYEPWGYTPAECTVMGVPSITTNVSGFGAYMEDLIETNQAKDYGIYIVDRRFKAPDESVEQLVDYMEEFVKKTRRQRINQRNRTERLSDLLDWKRMGLEYVKARQLALRRGYPDQFRELVGEELNDSNMDALAGGKKLKVARPLSVPGSPRDLRSNSTVYMTPGDLGTLQEVNNADDYFSLGVNPAADDDDDGPYADDS
As for B4, in data set [5], the specific activity was determined as 0.15 U/μL.
